Experimental data from article PMC12120888, “Phosphorylation of MdWRKY70L by MdMPK6/02G mediates reactive oxygen accumulation to regulate apple fruit senescence”.

How the values were obtained:
MdWRKY70L [1] = molecular target: T1, MdWRKY70L (Malus domestica, UniProt A0A7S5EAY7 1-303); test: EMSA; LightShift Chemiluminescent EMSA kit (Thermo); buffer, salt, pH and temperature not stated; conditions: protein: recombinant; tags: GST (Results); His (EMSA Methods, pET32a); label: 3' biotin, both strands; blunt
T1 sequence: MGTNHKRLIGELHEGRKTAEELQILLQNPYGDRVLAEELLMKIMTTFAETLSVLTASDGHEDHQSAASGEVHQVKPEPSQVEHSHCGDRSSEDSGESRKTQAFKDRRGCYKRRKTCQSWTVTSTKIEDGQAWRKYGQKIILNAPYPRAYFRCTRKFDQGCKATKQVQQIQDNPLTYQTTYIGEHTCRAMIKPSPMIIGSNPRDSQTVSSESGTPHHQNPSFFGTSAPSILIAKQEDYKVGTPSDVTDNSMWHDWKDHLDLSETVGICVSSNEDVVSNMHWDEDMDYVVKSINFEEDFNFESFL

MdWRKY70L [2] = molecular target: T1, MdWRKY70L; test: competition; 25x, 50x, 100x cold probe vs hot probe N1; LightShift Chemiluminescent EMSA kit (Thermo); buffer, salt, pH and temperature not stated; conditions: protein: recombinant; tags: GST (Results); His (EMSA Methods, pET32a); blunt
MdWRKY70L [3] = molecular target: T1, MdWRKY70L; test: competition; 25x, 50x, 100x cold probe vs hot probe N3; LightShift Chemiluminescent EMSA kit (Thermo); buffer, salt, pH and temperature not stated; conditions: protein: recombinant; tags: GST (Results); His (EMSA Methods, pET32a); blunt

| Binder | binding result (MdWRKY70L [1]) | further results |
| --- | --- | --- |
| MdZAT12 W-box hot probe (dsDNA) DNA 1: CATTGATCTGGATTTCTGTGCTGACTCAGACTCATCGTGGATGCTT DNA 2: AAGCATCCACGATGAGTCTGAGTCAGCACAGAAATCCAGATCAATG | binds |  |
| MdZAT12 W-box mutant probe (dsDNA) DNA 1: CATTGATCTGGATTTCTGTGCGGCCGCAGACTCATCGTGGATGCTT DNA 2: AAGCATCCACGATGAGTCTGCGGCCGCACAGAAATCCAGATCAATG | no binding |  |
| MdSAG101 W-box hot probe (dsDNA) DNA 1: TCTATATAAAGAGAGACATATTGACCATTCCGGTATCCTCTTCTCT DNA 2: AGAGAAGAGGATACCGGAATGGTCAATATGTCTCTCTTTATATAGA | binds |  |
| MdSAG101 W-box mutant probe (dsDNA) DNA 1: TCTATATAAAGAGAGACATATCGGCTATTCCGGTATCCTCTTCTCT DNA 2: AGAGAAGAGGATACCGGAATAGCCGATATGTCTCTCTTTATATAGA | no binding |  |
| MdZAT12 W-box cold probe (dsDNA) DNA 1: CATTGATCTGGATTTCTGTGCTGACTCAGACTCATCGTGGATGCTT DNA 2: AAGCATCCACGATGAGTCTGAGTCAGCACAGAAATCCAGATCAATG |  | binding result (MdWRKY70L [2]): binds |
| MdSAG101 W-box cold probe (dsDNA) DNA 1: TCTATATAAAGAGAGACATATTGACCATTCCGGTATCCTCTTCTCT DNA 2: AGAGAAGAGGATACCGGAATGGTCAATATGTCTCTCTTTATATAGA |  | binding result (MdWRKY70L [3]): binds |
